In patent US20250145690A1 (US Dept. of Health and Human Services, published 2025):

Experiments:
Experiment in all cases: bead flow cytometry, AUC minus CD4
[1] = biological target: SARS-CoV-2 spike N-terminal domain (NTD), recombinant (SARS-CoV-2, UniProt P0DTC2 14-305)
[2] = biological target: SARS-CoV-2 spike receptor binding domain (RBD), recombinant (SARS-CoV-2, UniProt P0DTC2 319-541)
[3] = biological target: T1, HCoV-229E spike protein (Sino Biological 40605-V08B) (HCoV-229E, UniProt P15423 16-1115)
T1 sequence: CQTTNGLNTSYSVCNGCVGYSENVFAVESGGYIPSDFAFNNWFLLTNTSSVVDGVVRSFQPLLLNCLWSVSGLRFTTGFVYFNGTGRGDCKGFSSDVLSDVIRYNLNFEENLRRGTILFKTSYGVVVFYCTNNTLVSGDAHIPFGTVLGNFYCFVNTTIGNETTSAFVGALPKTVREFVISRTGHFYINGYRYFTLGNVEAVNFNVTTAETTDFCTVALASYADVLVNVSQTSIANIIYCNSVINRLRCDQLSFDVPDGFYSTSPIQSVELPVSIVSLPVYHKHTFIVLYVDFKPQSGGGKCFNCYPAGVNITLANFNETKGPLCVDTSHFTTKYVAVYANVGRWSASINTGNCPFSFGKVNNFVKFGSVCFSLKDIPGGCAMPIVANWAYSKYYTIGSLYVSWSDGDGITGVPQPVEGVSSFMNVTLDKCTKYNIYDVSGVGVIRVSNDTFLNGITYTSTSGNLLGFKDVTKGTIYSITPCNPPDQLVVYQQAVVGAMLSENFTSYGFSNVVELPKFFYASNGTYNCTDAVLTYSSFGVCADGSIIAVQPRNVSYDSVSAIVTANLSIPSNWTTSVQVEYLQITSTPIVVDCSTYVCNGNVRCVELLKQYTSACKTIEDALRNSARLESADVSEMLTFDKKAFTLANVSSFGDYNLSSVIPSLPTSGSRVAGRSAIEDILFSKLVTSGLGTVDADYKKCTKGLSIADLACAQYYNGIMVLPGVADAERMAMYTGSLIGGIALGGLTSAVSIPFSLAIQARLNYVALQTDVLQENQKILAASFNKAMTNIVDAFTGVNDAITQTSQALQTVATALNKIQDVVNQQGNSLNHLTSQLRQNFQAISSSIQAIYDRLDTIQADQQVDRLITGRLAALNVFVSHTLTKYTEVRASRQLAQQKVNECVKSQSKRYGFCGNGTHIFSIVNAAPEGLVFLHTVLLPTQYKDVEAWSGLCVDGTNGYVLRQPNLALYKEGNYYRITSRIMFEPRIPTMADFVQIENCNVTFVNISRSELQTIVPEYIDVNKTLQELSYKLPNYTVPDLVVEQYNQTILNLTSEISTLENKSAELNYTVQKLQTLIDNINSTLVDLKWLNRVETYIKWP

[4] = biological target: T2, HCoV-NL63 spike protein (Sino Biological 40604-V08B) (HCoV-NL63, UniProt Q6Q1S2 19-1296)
T2 sequence: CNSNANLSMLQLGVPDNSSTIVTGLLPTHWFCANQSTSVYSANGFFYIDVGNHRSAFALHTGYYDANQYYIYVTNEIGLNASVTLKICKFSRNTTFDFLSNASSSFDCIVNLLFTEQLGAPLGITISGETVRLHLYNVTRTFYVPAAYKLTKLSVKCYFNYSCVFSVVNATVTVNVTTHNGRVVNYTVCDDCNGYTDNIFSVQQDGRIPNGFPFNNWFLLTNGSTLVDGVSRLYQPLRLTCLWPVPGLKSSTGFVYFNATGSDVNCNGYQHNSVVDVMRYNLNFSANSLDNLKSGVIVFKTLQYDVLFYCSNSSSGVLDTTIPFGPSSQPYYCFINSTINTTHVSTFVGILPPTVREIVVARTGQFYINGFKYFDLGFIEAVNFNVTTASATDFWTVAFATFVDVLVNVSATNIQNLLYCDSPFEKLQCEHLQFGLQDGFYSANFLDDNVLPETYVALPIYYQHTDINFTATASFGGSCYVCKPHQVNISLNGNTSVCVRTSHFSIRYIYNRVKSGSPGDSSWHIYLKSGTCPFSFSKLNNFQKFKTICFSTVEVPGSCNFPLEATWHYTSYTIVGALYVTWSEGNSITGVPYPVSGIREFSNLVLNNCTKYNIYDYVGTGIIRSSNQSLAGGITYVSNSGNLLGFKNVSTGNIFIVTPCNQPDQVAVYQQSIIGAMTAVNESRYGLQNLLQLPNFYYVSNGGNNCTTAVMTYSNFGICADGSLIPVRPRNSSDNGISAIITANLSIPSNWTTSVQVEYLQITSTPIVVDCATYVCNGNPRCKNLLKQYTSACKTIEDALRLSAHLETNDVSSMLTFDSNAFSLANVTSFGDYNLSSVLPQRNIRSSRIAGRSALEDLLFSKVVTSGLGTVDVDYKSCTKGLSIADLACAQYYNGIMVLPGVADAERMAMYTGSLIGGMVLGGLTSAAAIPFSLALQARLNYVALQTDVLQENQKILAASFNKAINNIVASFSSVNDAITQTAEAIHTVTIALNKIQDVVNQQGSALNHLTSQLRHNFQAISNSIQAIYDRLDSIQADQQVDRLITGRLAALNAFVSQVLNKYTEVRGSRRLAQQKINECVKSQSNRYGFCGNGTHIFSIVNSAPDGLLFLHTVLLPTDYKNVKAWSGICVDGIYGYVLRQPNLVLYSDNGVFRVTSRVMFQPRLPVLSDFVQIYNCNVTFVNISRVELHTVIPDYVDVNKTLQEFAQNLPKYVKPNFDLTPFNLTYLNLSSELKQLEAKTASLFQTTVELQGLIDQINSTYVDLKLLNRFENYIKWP

Measured: binding result

B1: COV93-17 (antibody, V domains shown)
VH: EVQLVQSGAEVKKPGESLRISCRGSGYSFTNYWISWVRQMPGKGLEWMGRIDPTDSYTNYSPSFQGHVTISTDKSISTAYLQWSSLKASDTAMYYCARHKNGMIHEYDYWGQGILVTVSS
VL: DIQLTQSPSTLSASVGDRVTITCRASQSIRSWLAWYQQKPGKAPKLLIYRASSLESGVPSRFSGSGSGTEFTLTISSLQPDDFATYYCQQYGTFGPGTKVDIR
no binding (tested: 200 µg/mL): all assays above

B2: COV30-14 (antibody, V domains shown)
VH: QVQLVQSGAEVKKPGASVKVSCQTSGYTFTSYYMHWVRQAPGQGLEWMGLITPSGDDTYYAQRFQGRVTMTRDTSTSPTYMELSSLTSEDTAVYYCAKMSRAGGFDVWGQGTLVTVSS
VL: EVVLTQSPGTLSLSPGERATLSCRASQSITGRYLAWYQQKPGQAPRLLMYGESSRVTGIPDRFSGGGSGTDFTLTISRLEPEDFAVYYCQHFASSPPTYTFGQGTKLEIR
no binding (tested: 200 µg/mL): [1] | [3] | [4]

B3: COV93-03 (antibody, V domains shown)
VH: QLQLVQSGAEVKKPGASVKLSCKASGNTFTSHYIHWVRQAPGQGPEWMGIINPSGSGTRYAQKFQGRVTMTRDTSTSTVYMELVSLRFEDTAVYYCAGDYYLDYWGQGTLVTVSS
VL: EFVLTQSPGTLSLSPGERATLSCRASQSVTSNYLAWYQQKPGQAPRLLIFGASSRATGIPDRFSGSGSGTDFTLTISRLEPEDFAVYYCQQYGSSPPMYTFGPGTKVEIK
no binding (tested: 200 µg/mL): all assays above

B4: COV44-54 (antibody, V domains shown)
VH: QVQLVQSGAEVKKPGASVRVSCKTSGYTFTNYYMTWVRQAPGQGLQWVGLISPSAGYTAYAQMFQGRVTMTSDTSTSTVYMQLSSLRSEDTAIYYCTRVAVAGPNDYWGQGTLVTVSS
VL: EIVLTQSPGTLSLSPGERATLSCRASQSISGSYLAWYQQKPGQAPRLVIYAASSRATGIPDRFSGSGSGTDFILTISRLEAEDFAVYFCQHYRSSPPLWTFGQGTKVEIR
no binding (tested: 200 µg/mL): all assays above

B5: COV72-37 (antibody, V domains shown)
VH: QVQLVQSGAEVKKPAASVKVSCKASGDTFSSHYMHWVRQAPGQGPEWMGIINPSGSGTAYGQKFQGRLTMTRDTSTSTVYMELSSLTSDDTAVYYCGGGSGGLFAYWGQGTLVTVSS
VL: EIVLTQSPGTLSLSPGERATLSCRASQIVRSNYLAWYQQKPGQAPRLLIYGASSRATGTPDRFSGGGSGTDFTLTINRLEPEDFAVYYCLQYDSSPPTYIFGQGTKLEIK
no binding (tested: 200 µg/mL): [1] | [3] | [4]

B6: COV44-56 (antibody, V domains shown)
VH: QVLLVQSGAEVKKPGASVMVSCKASGYILNNYYMHWVRQAPGHGLEWMGIINPSGDGTRYAQKFQGRVTMTRDSSTTSIHMELRRVTSEDTAVYYCARGGSQSAFDMWGQGTVVLVSS
VL: DIVMTQSPRSLPVTPGESASISCRSSQSLLQKNGYNYLDWYVQKPGQSPQLLIYLGSYRASGVPDRISGSGSGTDFTLKINRVEAEDVGVYYCLQAQQAPPLYTFGQGTKLQIE
no binding (tested: 200 µg/mL): all assays above

B7: COV93-08 (antibody, V domains shown)
VH: QVQLRESGPGVVKPSGTLSLTCTVSGDFINNNRWWTWVRQSPGKGLEWIGEIYHSGSTNYNPSLKGRVTISVDKSKNHFSLKLTSVTAADTAMYYCARGGYCTVGDCHDNWFDPWGQGTLVTVSS
VL: DIQMTQSPSTLSASVGDRVTITCRASQNINSWLAWYQQKPGKAPKVLIYKASSLESGVPSRFSGSVSGTEFTLTISSLQPDDFATYYCQQYSTLSWTFGQGTKVDIK
no binding (tested: 200 µg/mL): all assays above

B8: COV93-38 (antibody, V domains shown)
VH: QVQLQESGPGVVKPSGTLSLTCAVSGDFSNNNRWWTWVRQSPGKGLEWIGEIHQSGSTNYNPSLKSRITISVDKSKNQFSLKLTSVTAADTAVYYCARGGYCSVGDCHDNWFDPWGQGTLVTVSS
VL: DIQMTQSPSTLSASVGDRVTITCRASQTINSWLAWYQQKPGKAPKVLIYKASSLESGVPSRFSGSVSGTEFTLTISSLQPDDFATYYCQQYSSLSWTFGQGTKVDIK
no binding (tested: 200 µg/mL): all assays above

B9: COV49-51 (antibody, V domains shown)
VH: QVQLVQSGAEAKKPGASVKVSCKASGYSFTSYHMHWVRQAPGQGLEWMGIINPNGGTTTYAPKFQGRVTMTSDTSTSTVYMELTSLRSEDTAVYYCSTVVGALWGQGTLVIVSS
VL: IVLTQSPGTLSLSPGERATLSCRASQSVRSNNYLAWYQQKPGQAPRLLIYGASTRATGIPDRFSGSGSGTDFTLTISRLEPEDFAVYYCQQYGSSPLTFGGGTRVEIK
no binding (tested: 200 µg/mL): all assays above
